Measured values published in patent US8309523 (VIB VZW, dated 2012).

T1: MALT1-R149A (bio-tagged) (human, UniProt Q9UDY8 1-824, Avi-tag biotinylated in vivo by co-expressed BirA)
T1 construct: also called R149A mutant
T1 sequence (looked up): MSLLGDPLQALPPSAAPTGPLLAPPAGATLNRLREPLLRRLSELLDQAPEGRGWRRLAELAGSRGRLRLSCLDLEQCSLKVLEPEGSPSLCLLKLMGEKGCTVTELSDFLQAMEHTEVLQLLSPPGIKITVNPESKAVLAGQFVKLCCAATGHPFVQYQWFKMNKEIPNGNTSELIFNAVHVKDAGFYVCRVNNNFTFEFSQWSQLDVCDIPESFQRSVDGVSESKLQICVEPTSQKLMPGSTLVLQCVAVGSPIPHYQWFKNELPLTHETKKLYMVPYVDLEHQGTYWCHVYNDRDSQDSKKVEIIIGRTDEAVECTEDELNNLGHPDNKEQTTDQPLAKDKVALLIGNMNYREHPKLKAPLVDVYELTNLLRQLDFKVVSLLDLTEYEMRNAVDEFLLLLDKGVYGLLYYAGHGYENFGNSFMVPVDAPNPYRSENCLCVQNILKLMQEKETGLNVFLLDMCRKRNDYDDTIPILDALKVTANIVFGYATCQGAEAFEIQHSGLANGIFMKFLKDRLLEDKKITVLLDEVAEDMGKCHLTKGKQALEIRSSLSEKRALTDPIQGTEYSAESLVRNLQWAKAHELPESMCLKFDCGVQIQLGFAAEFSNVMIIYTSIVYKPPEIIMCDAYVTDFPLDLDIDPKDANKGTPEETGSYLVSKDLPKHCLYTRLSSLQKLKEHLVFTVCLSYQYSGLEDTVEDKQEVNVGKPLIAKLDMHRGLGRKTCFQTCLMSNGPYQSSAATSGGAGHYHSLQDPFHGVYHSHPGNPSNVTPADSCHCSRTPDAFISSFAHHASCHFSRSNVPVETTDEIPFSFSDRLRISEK

T2: MALT1 (wild type, Flag- and Avi-tagged bio-construct) (human, UniProt Q9UDY8 1-824, Avi-tag biotinylated in vivo by co-expressed BirA)
T2 construct: also called paracaspase; bio-IP purified MALT1
T2 sequence (looked up): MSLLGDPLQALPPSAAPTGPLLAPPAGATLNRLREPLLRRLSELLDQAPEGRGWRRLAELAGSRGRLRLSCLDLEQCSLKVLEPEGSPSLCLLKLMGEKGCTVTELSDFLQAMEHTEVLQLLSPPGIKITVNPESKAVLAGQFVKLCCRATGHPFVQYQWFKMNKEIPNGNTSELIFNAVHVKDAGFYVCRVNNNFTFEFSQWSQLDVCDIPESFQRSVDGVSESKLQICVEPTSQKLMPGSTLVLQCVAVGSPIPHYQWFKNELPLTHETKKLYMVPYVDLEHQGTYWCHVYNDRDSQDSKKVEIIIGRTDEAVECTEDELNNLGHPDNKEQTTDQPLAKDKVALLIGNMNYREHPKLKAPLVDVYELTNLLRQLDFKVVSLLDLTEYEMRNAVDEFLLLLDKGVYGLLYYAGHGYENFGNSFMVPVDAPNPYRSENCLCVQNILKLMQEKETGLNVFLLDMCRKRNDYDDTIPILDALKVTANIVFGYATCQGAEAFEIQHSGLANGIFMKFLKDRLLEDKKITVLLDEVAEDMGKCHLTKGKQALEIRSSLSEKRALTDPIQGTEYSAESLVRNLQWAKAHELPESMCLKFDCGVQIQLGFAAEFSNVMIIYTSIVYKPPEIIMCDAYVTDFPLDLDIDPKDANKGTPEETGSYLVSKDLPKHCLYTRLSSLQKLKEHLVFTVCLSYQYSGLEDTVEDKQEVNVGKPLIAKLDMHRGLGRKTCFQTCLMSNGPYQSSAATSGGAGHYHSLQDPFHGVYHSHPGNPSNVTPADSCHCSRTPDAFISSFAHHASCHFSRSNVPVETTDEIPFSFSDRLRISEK


Columns and labels:
MALT1-R149A (bio-tagged) = target: T1, MALT1-R149A (bio-tagged); assay: co-IP (bio-IP, immunoblot)
[1] = target: T2, MALT1 (wild type, Flag- and Avi-tagged …); assay: bio-IP from HEK293T cells, anti-TRAF6 immunoblot
Source text: FIG. 5: p76 activates NFκB via TRAF6. […] Panel B) TRAF6 mediates NFκB signaling by p76. Top: NFκB-reporter assays of HEK293T cells transiently expressing MALT1, p76 and mutants or MALT1-C. Bottom: MALT1, p76 or MALT1-C, transiently expressed in HEK293T cells, were purified via bio-IPs and immunoblotted with anti-MALT1 (to show equal expression), anti-TRAF6 and anti-BCL10. Panel C) p76 induces polyubiquitination of IKKγ. Immunoblot analysis of bio-IP and IKKγ-IP of 293T cells transfected with pcD-F-IKKγ and pcd-HA-Ub in combination with indicated Avi-tagged MALT1 constructs. Panel D) BCL10 is not involved in NFκB signaling by p76. NFκB reporter assays of HEK-293T cells transfected with siRNA duplexes against MALT1, BCL10 or GFP (as control) followed by transient transfection with p76. The expression levels were determined by immunoblot with anti-MALT1 and anti-BCL10. NFκB-dependent luciferase activity […] is shown as fold induction of vector-transfected cells and represents the mean+/−S.D. of three independent experiments.
NFκB activation by MALT1 requires TRAF6 binding via two distinct sites (19), which are both present in the p76 cleavage fragment. Mutation of one TRAF6 binding site, either E313A/E316A (T6Ig-m) or E806A (T6C-m), abolished the potential of p76 to activate NFκB signaling in 293T cells (FIG. 5, Panel B). […] Furthermore, NFκB activation by p76 in 293T cells was associated with increased polyubiquitination of IKKγ (FIG. 5, Panel C).

binding result (MALT1-R149A (bio-tagged)) | binding result [1] | Binder
binds | – | BCL10 (other, UniProt O95999 1-233, looked up, Co-precipitated from lysates of human cell lines) MEPTAPSLTEEDLTEVKKDALENLRVYLCEKIIAERHFDHLRAKKILSREDTEEISCRTSSRKRAGKLLDYLQENPKGLDTLVESIRREKTQNFLIQKITDEVLKLRNIKLEHLKGLKCSSCEPFPDGATNNLSRSNSDESNFSEKLRASTVMYHPEGESSTTPFFSTNSSLNLPVLEVGRTENTIFSSTTLPRPGDPGAPPLPPDLQLEEEGTCANSSEMFLPLRSRTVSRQ
– | binds | TRAF6 (other, UniProt Q9Y4K3 1-522, looked up, Co-precipitated from lysates of human cell lines) MSLLNCENSCGSSQSESDCCVAMASSCSAVTKDDSVGGTASTGNLSSSFMEEIQGYDVEFDPPLESKYECPICLMALREAVQTPCGHRFCKACIIKSIRDAGHKCPVDNEILLENQLFPDNFAKREILSLMVKCPNEGCLHKMELRHLEDHQAHCEFALMDCPQCQRPFQKFHINIHILKDCPRRQVSCDNCAASMAFEDKEIHDQNCPLANVICEYCNTILIREQMPNHYDLDCPTAPIPCTFSTFGCHEKMQRNHLARHLQENTQSHMRMLAQAVHSLSVIPDSGYISEVRNFQETIHQLEGRLVRQDHQIRELTAKMETQSMYVSELKRTIRTLEDKVAEIEAQQCNGIYIWKIGNFGMHLKCQEEEKPVVIHSPGFYTGKPGYKLCMRLHLQLPTAQRCANYISLFVHTMQGEYDSHLPWPFQGTIRLTILDQSEAPVRQNHEEIMDAKPELLAFQRPTIPRNPKGFGYVTFMHLEALRQRTFIKDDTLLVRCEVSTRFDMGSLRREGFQPRSTDAGV
